Assay results taken from patent US20110274704A1.

Experiments:
[1] = target: fusion protein containing the A3B3 domain of CEA (UniProt P06731); assay: competitive ELISA on coated A3B3 fusion protein; competitor HRP-conjugated hMN-14 IgG (1 nM)
[2] = target: CD20 on lymphoma and leukemia cell lines (human) (UniProt P11836); assay: cell-based or functional assay
Sequence of CD20 on lymphoma and leukemia cell lines (human) (P11836 whole entry): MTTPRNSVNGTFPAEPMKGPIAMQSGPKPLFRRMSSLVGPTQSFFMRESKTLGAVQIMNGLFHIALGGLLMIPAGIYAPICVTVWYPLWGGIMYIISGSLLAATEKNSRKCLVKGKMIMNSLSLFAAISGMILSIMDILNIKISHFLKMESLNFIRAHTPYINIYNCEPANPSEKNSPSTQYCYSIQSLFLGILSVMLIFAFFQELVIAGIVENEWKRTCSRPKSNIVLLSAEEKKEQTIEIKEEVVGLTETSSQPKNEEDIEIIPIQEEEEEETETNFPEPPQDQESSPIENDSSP

fold of avidity against TF1 [1] | Substance | EC50, in vitro cytotoxicity, Daudi and Ramos cells [2] | EC50, in vitro cytotoxicity, Jeko-1 cells [2]
2 fold | TF2 (bispecific antibody) |  | 
 | 20-Rap (antibody) | 0.0001 µM | 20 µM
